Test results published in article PMC10695385.

Target: SYD-2/Liprin-α N-terminal fragment (coiled-coils and IDR) (UniProt Q21049)
Assay: GFP-trap pull-down, Coomassie gel
Details: reference: SAD-1-phosphorylated wild-type SAM; sites S896,S901,S904

SYD-2/Liprin-α SAM domains, 844-1139 (from UniProt Q21049) SAD-1-phosphorylated SAM(3A)
binding against the reference: stronger
